Source: paper PMC9482650, “Quantitative fragmentomics allow affinity mapping of interactomes” (Nature Communications, 2022)

What was measured:
Assay in all cases: holdup assay
Set-up in all cases: key: below the threshold = too weak to quantify, mostly under pKd 3.1 to 4
[1] = target: AHNAK1, Q09666
[2] = target: T1, APBA2_1, Q99767
T1 sequence (Q99767 563-664, limits assumed, looked up): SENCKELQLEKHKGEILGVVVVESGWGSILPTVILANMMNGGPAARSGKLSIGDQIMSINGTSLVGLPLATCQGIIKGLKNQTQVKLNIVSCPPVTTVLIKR

[3] = target: T2, DFNB31_1, Q9P202
T2 sequence (Q9P202 135-233, limits assumed, looked up): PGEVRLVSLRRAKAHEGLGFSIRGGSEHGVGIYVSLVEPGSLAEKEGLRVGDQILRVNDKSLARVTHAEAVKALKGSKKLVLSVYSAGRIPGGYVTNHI

[4] = target: DLG1_1, Q12959
[5] = target: DLG1_2, Q12959
[6] = target: DLG2_3, Q15700
[7] = target: T3, DLG3_2, Q92796
T3 sequence (Q92796 221-321, limits assumed, looked up): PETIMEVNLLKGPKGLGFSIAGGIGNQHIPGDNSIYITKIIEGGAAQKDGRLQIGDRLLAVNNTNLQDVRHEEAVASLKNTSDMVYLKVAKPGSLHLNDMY

[8] = target: GORASP1, Q9BQQ3
GORASP1, Q9BQQ3, sequence (Q9BQQ3 1-208): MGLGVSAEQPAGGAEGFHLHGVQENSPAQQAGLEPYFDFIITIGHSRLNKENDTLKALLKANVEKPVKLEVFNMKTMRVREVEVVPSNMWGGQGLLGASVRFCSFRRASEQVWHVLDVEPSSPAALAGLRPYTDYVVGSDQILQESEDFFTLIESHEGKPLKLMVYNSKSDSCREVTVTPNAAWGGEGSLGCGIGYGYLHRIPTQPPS

[9] = target: T4, GRIP1_3, Q9Y3R0
T4 sequence (Q9Y3R0 247-346, limits assumed, looked up): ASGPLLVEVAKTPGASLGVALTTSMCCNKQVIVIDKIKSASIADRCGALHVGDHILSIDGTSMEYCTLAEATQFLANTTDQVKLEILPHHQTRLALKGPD

[10] = target: T5, GRIP1_4, Q9Y3R0
T5 sequence (Q9Y3R0 467-571, limits assumed, looked up): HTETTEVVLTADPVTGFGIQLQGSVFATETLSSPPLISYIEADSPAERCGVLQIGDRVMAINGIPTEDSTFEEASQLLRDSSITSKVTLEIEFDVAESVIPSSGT

[11] = target: T6, GRIP1_7, Q9Y3R0
T6 sequence (Q9Y3R0 999-1096, limits assumed, looked up): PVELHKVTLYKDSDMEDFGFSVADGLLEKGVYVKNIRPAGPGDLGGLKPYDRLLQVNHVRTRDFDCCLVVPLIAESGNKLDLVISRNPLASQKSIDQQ

[12] = target: T7, HTRA3, P83110
T7 sequence (P83110 354-453, limits assumed, looked up): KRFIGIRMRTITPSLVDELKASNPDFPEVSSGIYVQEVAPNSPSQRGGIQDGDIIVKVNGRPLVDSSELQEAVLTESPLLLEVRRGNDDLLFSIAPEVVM

[13] = target: Inadl_1, Q8NI35
Inadl_1, Q8NI35, sequence (Q8NI35 113-229): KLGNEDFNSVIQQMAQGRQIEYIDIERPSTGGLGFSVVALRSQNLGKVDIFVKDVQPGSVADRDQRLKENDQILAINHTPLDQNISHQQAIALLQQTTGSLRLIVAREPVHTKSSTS

[14] = target: Inadl_10, Q8NI35
Inadl_10, Q8NI35, sequence (Q8NI35 1673-1763): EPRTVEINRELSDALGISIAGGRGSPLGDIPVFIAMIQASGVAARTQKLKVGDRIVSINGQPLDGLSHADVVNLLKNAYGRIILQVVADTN

[15] = target: Inadl_5, Q8NI35
Inadl_5, Q8NI35, sequence (Q8NI35 673-780): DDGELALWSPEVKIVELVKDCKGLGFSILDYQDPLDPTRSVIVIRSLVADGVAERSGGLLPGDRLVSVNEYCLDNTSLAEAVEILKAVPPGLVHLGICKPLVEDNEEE

[16] = target: Inadl_9, Q8NI35
Inadl_9, Q8NI35, sequence (Q8NI35 1530-1615): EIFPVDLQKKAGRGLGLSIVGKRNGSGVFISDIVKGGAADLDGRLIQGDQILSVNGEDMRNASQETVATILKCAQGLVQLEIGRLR

[17] = target: T8, LIN7B, Q9HAP6
T8 sequence (Q9HAP6 88-185, limits assumed, looked up): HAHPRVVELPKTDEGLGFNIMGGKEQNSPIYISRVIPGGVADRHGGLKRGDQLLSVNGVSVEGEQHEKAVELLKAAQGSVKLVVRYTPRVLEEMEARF

[18] = target: LNX1_3, Q8TBB1
LNX1_3, Q8TBB1, sequence (Q8TBB1 500-596): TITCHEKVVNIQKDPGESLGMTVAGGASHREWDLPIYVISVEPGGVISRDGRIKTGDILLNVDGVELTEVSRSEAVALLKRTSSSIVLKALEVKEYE

[19] = target: T9, MPP7, Q5T2T1
T9 sequence (Q5T2T1 134-230, limits assumed, looked up): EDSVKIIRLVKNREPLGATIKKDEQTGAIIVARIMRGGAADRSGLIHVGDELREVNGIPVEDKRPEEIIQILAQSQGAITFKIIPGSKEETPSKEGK

[20] = target: NHERF4_1, Q86UT5-2
NHERF4_1, Q86UT5-2, sequence (Q86UT5 other isoform, or with tags, fused parts or gaps): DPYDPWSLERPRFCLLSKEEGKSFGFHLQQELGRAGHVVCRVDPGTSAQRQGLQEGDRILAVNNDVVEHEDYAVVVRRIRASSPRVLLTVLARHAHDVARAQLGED

[21] = target: T10, PCLO, Q9Y6V0
T10 sequence (Q9Y6V0 4491-4600, limits assumed, looked up): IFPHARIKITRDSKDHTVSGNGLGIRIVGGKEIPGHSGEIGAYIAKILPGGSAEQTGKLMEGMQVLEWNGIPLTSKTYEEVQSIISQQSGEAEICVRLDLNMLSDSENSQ

[22] = target: T11, PDZD2_2, O15018
T11 sequence (O15018 329-429, limits assumed, looked up): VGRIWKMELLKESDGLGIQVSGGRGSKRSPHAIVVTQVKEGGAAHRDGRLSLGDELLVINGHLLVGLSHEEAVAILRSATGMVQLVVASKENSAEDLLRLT

[23] = target: PDZRN4_1, Q6ZMN7
PDZRN4_1, Q6ZMN7, sequence (Q6ZMN7 213-318): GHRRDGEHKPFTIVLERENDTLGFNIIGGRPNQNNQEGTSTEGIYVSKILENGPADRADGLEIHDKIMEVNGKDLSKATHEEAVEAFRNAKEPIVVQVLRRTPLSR

[24] = target: PICK1, Q9NRD5
PICK1, Q9NRD5, sequence (Q9NRD5 17-115): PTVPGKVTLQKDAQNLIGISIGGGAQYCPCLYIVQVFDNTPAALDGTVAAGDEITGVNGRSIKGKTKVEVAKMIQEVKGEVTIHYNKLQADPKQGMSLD

[25] = target: SCRIB_3, Q14160
SCRIB_3, Q14160, sequence (Q14160 999-1103): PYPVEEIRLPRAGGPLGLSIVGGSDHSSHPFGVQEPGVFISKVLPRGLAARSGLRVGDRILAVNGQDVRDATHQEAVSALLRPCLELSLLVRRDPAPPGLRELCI

[26] = target: T12, SNTB1, Q13884
T12 sequence (Q13884 107-205, limits assumed, looked up): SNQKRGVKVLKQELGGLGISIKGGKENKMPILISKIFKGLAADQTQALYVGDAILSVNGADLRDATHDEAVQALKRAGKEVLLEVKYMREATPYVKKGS

[27] = plain residues with an end cap or a label only (N-terminal biotin on a linker: ttds)
[28] = plain residues with an end cap or a label only (N-terminal biotin on a linker: ahx)

AHNAK1, Q09666, sequence (Q09666 4-100): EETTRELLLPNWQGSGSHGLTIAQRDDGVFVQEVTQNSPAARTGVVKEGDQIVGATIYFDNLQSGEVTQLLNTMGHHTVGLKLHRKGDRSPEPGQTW

B1: TMIGD1, Q6UXZ0 (peptide)
chain: DKDPHSETAL
pKd [1, 27]: below the threshold | pKd [2, 27]: below the threshold | pKd [3, 27]: 3.98 | pKd [4, 27]: 3.77 | pKd [5, 27]: below the threshold | pKd [6, 27]: below the threshold | pKd [7, 27]: below the threshold | pKd [8, 27]: below the threshold | pKd [9, 27]: below the threshold | pKd [10, 27]: below the threshold | pKd [11, 27]: below the threshold | pKd [12, 27]: below the threshold | pKd [13, 27]: below the threshold | pKd [14, 27]: below the threshold | pKd [15, 27]: below the threshold | pKd [16, 27]: below the threshold | pKd [17, 27]: below the threshold | pKd [18, 27]: below the threshold | pKd [19, 27]: below the threshold | pKd [20, 27]: 3.88 | pKd [21, 27]: below the threshold | pKd [22, 27]: 3.73 | pKd [23, 27]: 4.64 | pKd [24, 27]: below the threshold | pKd [25, 27]: 5.01 | pKd [26, 27]: 4.53

B2: SLC4A7, Q9Y6M7 (peptide)
chain: KKYVDAETSL
pKd [1, 27]: below the threshold | pKd [2, 27]: below the threshold | pKd [3, 27]: 3.98 | pKd [4, 27]: below the threshold | pKd [5, 27]: 3.56 | pKd [6, 27]: below the threshold | pKd [7, 27]: 3.91 | pKd [8, 27]: below the threshold | pKd [9, 27]: below the threshold | pKd [10, 27]: below the threshold | pKd [11, 27]: below the threshold | pKd [12, 27]: below the threshold | pKd [13, 27]: 3.55 | pKd [14, 27]: below the threshold | pKd [15, 27]: below the threshold | pKd [16, 27]: below the threshold | pKd [17, 27]: 3.53 | pKd [18, 27]: below the threshold | pKd [19, 27]: below the threshold | pKd [20, 27]: 3.49 | pKd [21, 27]: below the threshold | pKd [22, 27]: 4.06 | pKd [23, 27]: 4.8 | pKd [24, 27]: below the threshold | pKd [25, 27]: 5.09 | pKd [26, 27]: 4.46

B3: SHROOM4, Q9ULL8 (peptide)
chain: ESLLLGPSNF
pKd [1, 28]: below the threshold | pKd [2, 28]: below the threshold | pKd [3, 28]: below the threshold | pKd [4, 28]: below the threshold | pKd [5, 28]: below the threshold | pKd [6, 28]: below the threshold | pKd [7, 28]: below the threshold | pKd [8, 28]: below the threshold | pKd [9, 28]: below the threshold | pKd [10, 28]: below the threshold | pKd [11, 28]: below the threshold | pKd [12, 28]: below the threshold | pKd [13, 28]: below the threshold | pKd [14, 28]: below the threshold | pKd [15, 28]: below the threshold | pKd [16, 28]: below the threshold | pKd [17, 28]: below the threshold | pKd [18, 28]: below the threshold | pKd [19, 28]: below the threshold | pKd [20, 28]: below the threshold | pKd [21, 28]: below the threshold | pKd [22, 28]: below the threshold | pKd [23, 28]: below the threshold | pKd [24, 28]: below the threshold | pKd [25, 28]: below the threshold | pKd [26, 28]: below the threshold

B4: KCTD3, Q9Y597 (peptide)
chain: SDSSGQEYSL
pKd [1, 28]: below the threshold | pKd [2, 28]: below the threshold | pKd [3, 28]: below the threshold | pKd [4, 28]: below the threshold | pKd [5, 28]: below the threshold | pKd [6, 28]: below the threshold | pKd [7, 28]: below the threshold | pKd [8, 28]: below the threshold | pKd [9, 28]: below the threshold | pKd [10, 28]: below the threshold | pKd [11, 28]: below the threshold | pKd [12, 28]: below the threshold | pKd [13, 28]: below the threshold | pKd [14, 28]: below the threshold | pKd [15, 28]: below the threshold | pKd [16, 28]: below the threshold | pKd [17, 28]: below the threshold | pKd [18, 28]: below the threshold | pKd [19, 28]: 4.1 | pKd [20, 28]: below the threshold | pKd [21, 28]: below the threshold | pKd [22, 28]: below the threshold | pKd [23, 28]: below the threshold | pKd [24, 28]: below the threshold | pKd [25, 28]: below the threshold | pKd [26, 28]: below the threshold

B5: HPV30-E6, P36809 (peptide)
chain: RHTTSTETAV
pKd [1, 27]: 3.72 | pKd [2, 27]: below the threshold | pKd [3, 27]: 4.27 | pKd [4, 27]: 4.93 | pKd [5, 27]: 5.63 | pKd [6, 27]: 4.79 | pKd [7, 27]: 5.41 | pKd [8, 27]: below the threshold | pKd [9, 27]: below the threshold | pKd [10, 27]: below the threshold | pKd [11, 27]: below the threshold | pKd [12, 27]: below the threshold | pKd [13, 27]: below the threshold | pKd [14, 27]: below the threshold | pKd [15, 27]: below the threshold | pKd [16, 27]: below the threshold | pKd [17, 27]: 3.71 | pKd [18, 27]: below the threshold | pKd [19, 27]: below the threshold | pKd [20, 27]: below the threshold | pKd [21, 27]: below the threshold | pKd [22, 27]: 4.42 | pKd [23, 27]: 4.53 | pKd [24, 27]: below the threshold | pKd [25, 27]: 5.02 | pKd [26, 27]: 5.1
